Experimental findings from patent US6383484 are described below.

Assay [1] concerns the target VEGF-DΔNΔC (human VEGF-D residues 93 to 201, FLAG-tagged at the N-terminus) (human) (UniProt O43915). Put plainly: cell-based or functional assay.
Assay [2] has the same target. Description: SPR (BIAcore 3000), antibody immobilized, human VEGF-DΔNΔC flowed at 41-689 nM, 1:1 Langmuir model. (SPR reads the build-up and loss of mass on a sensor chip optically.)
Assay [3] addresses T1, chimeric protein consisting of the extracellular domain of human VEGFR-1 and the Fc portion of human IgG (human, UniProt P17948 27-758).
T1 construct: extracellular domain; also called VEGFR-1/Ig; not shown: Fc portion of human IgG
Put plainly: plate receptor-binding assay, VEGFR-1/Ig coated, detection with biotinylated M2.

T1 sequence (P17948 27-758, change not shown): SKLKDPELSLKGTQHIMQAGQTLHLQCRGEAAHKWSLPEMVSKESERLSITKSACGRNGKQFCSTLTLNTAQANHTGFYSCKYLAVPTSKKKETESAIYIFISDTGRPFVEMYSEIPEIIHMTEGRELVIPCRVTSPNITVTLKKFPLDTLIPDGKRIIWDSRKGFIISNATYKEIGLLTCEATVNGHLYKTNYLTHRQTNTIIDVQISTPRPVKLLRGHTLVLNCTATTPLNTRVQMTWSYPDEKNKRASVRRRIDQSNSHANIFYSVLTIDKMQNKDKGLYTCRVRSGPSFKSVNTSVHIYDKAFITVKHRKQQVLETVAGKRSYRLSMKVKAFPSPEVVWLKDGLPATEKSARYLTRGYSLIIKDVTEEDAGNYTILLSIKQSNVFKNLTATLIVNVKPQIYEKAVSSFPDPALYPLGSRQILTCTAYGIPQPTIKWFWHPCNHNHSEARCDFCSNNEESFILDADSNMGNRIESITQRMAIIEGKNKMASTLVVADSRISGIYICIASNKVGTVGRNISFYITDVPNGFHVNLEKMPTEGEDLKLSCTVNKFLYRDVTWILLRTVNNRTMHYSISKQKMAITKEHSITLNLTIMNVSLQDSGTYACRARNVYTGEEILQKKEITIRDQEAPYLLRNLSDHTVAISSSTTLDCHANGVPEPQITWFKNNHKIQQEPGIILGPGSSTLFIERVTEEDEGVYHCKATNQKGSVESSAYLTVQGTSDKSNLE

By Kd is commonly meant the concentration at which binding is half-saturated. One may read the koff as a measure of how fast the partners let go of each other. High values mean a short-lived complex, low ones a long-lived complex. Usually kon stands for the second-order rate constant of association. A lower kon goes with slower complex formation. With monoclonal antibody 4E10, in assay [1], the response of Ba/F3-NYK-EpoR cells to VEGF-D?N?C (3H-thymidine incorporation) is 80 µg/mL. In assay [2], the Kd worked out at 57.1 nM, the koff stood at 0.00445 s⁻¹ and the on-rate (kon) was found to be 78000 M⁻¹ s⁻¹.

B1: VEGF-DΔNΔC (human VEGF-D residues 93 to 201, FLAG-tagged at the N-terminus) (ligand)
chain: FYDIETLKVIDEEWQRTQCSPRETCVEVASELGKSTNTFFKPPCVNVFRCGGCCNEESLICMNTSTSYISKQLFEISVPLTSVPELVPVKVANHTGCKCLPTAPRHPYS
notes: also called VEGF-D?N?C; human VEGF-D?N?C; not shown: FLAG octapeptide (Sigma) at the N-terminus; any vector-de
For the molecule B1, the binding result in assay [3] was “no binding (tested: 7.3 µg/ml VEGF-DΔNΔC)”.
